# Measured values from the Human Domainome abundance scans (Beltran et al. 2025).
# ± gives the uncertainty stated by the source.
# B1: Ventral anterior homeobox 1, residues 102 to 157; numbered along this chain, Q5SQQ9 (parent)
# chain: RTRTSFTAEQLYRLEMEFQRCQYVVGRERTELARQLNLSETQVKVWFQNRRTKQKK
# Variants of: B1
# Assay: abundance fitness (aPCA) (normalised: wild type 0, dead -1); higher = more abundant; growth selection in yeast, the domain comes from the species named
# Settings: Homo sapiens
row,Variant,abundance fitness
1,T4Q,-0.11 ± 0.2
2,T4H,-0.49 ± 0.28
3,E31D,-0.234 ± 0.29
4,E31F,-0.795 ± 0.32
5,E31K,-0.592 ± 0.21
6,E31L,-0.5 ± 0.15
7,E31T,-0.243 ± 0.19
8,T2W,-0.566 ± 0.24
9,T2S,-0.074 ± 0.16
10,T2Q,0.135 ± 0.28
11,T2H,-0.38 ± 0.24
12,T2Y,-0.335 ± 0.26
13,T2E,-0.012 ± 0.3
14,R50K,-0.041 ± 0.17
15,R50G,-0.832 ± 0.13
16,R50P,-1.02 ± 0.29
17,R50I,-1.09 ± 0.44
18,R50M,-0.034 ± 0.16
19,R50N,-0.424 ± 0.35
20,R50W,-0.929 ± 0.2
21,R50A,-0.163 ± 0.13

row,Variant,abundance fitness
1,N37F,-0.183 ± 0.42
2,N37R,-0.134 ± 0.12
3,N37S,-0.239 ± 0.19
4,N37E,-0.033 ± 0.26
5,N37A,-0.211 ± 0.23
6,K56R,-0.127 ± 0.22
7,K56M,-0.17 ± 0.27
8,K56Q,-0.167 ± 0.33
9,K56N,0.151 ± 0.34
10,K56H,-0.159 ± 0.27
11,K56S,0.135 ± 0.14
12,T7C,-0.335 ± 0.18
13,T7M,-0.452 ± 0.23
14,T7F,-0.77 ± 0.27
15,T7K,-0.589 ± 0.23
16,T7I,-0.56 ± 0.21
17,T7W,-0.925 ± 0.25
18,K53W,-0.04 ± 0.14
19,K53Q,0.115 ± 0.19
20,K53L,0.183 ± 0.13
21,K53F,0.174 ± 0.26

row,Variant,abundance fitness
1,K53G,-0.037 ± 0.096
2,K53N,0.199 ± 0.33
3,K53M,-0.103 ± 0.19
4,S5W,-0.189 ± 0.14
5,S5E,0.326 ± 0.14
6,S5D,0.262 ± 0.14
7,S5Q,0.028 ± 0.17
8,V43C,-0.508 ± 0.23
9,V43F,-0.765 ± 0.32
10,V43S,-0.561 ± 0.22
11,V43M,-0.838 ± 0.4
12,V43L,-0.166 ± 0.14
13,V43P,-0.723 ± 0.33
14,V43A,-0.679 ± 0.28
15,E15M,-0.982 ± 0.27
16,E15R,-0.787 ± 0.13
17,E15N,-0.564 ± 0.24
18,E15P,-1.07 ± 0.36
19,E15V,-0.847 ± 0.17
20,E15L,-0.44 ± 0.22
21,E15H,-1.08 ± 0.44

row,Variant,abundance fitness
1,E15W,-0.71 ± 0.25
2,E28V,-0.419 ± 0.12
3,E28H,-0.318 ± 0.2
4,E28Y,-0.661 ± 0.4
5,E28W,-0.483 ± 0.19
6,E28N,-0.459 ± 0.27
7,E28F,-0.513 ± 0.26
8,R13L,-0.068 ± 0.1
9,R13Y,-0.316 ± 0.19
10,R13G,-0.207 ± 0.18
11,R13K,-0.004 ± 0.29
12,R13S,-0.074 ± 0.097
13,R13Q,0.163 ± 0.18
14,R13T,-0.113 ± 0.13
15,R13C,-0.161 ± 0.13
16,L14A,-0.708 ± 0.21
17,L14I,-0.54 ± 0.49
18,L14V,-0.619 ± 0.19
19,L14T,-0.843 ± 0.38
20,L14S,-0.906 ± 0.2
